In article PMC3467086:

Experiments:
Experiment in all cases: EMSA
[1] = target: NF90ΔC381 (DZF);NF45ΔN28 (DZF) (mouse;mouse, UniProt Q9Z1X4;Q9CXY6 1-380;29-390, |)
NF90 dsRBDs = target: T1, NF90 dsRBDs (mouse, UniProt Q9Z1X4 380-590)
T1 sequence: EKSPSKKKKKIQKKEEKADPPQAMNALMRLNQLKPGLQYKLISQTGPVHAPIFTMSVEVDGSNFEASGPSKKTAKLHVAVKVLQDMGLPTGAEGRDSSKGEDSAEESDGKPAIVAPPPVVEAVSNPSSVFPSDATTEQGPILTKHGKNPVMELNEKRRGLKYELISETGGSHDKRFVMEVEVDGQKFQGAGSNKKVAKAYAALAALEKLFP

[2] = target: NF90ΔC591 (DZF + both dsRBDs);NF45 (partner in long complex) (mouse;mouse, UniProt Q9Z1X4;Q9CXY6 1-590;29-390, |)
NF90ΔC591 (DZF + both dsRBDs);NF45 (partner in long complex), sequence (Q9CXY6 29-390, stated change not applied, one chain of several): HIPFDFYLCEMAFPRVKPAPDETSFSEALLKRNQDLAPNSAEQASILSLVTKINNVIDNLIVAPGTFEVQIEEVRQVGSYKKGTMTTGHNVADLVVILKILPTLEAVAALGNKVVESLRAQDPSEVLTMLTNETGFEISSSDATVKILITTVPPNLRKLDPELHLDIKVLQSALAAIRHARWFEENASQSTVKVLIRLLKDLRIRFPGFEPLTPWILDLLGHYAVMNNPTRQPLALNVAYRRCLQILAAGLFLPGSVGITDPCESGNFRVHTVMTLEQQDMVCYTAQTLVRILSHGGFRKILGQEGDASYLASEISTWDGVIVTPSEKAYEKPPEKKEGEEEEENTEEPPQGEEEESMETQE

B1: ss17-A10/Css17-U10 dsRNA (dsRNA)
RNA 1: CCCCACCACCAUCACUUAAAAAAAAAA
RNA 2: UUUUUUUUUUAAGUGAUGGUGGUGGGG
- binding result [1]: no binding
- binding result (NF90 dsRBDs): binds
- binding result [2]: binds

B2: ss17-A10 (ssRNA)
RNA: CCCCACCACCAUCACUUAAAAAAAAAA
- binding result [1]: no binding
